From paper PMC11592157, “Exploring the Biological Activity of a Humanized Anti-CD99 ScFv and Antibody for Targeting T Cell Malignancies” (Biomolecules, 2024)
One block for each binder: values may come before it. Where no end group is shown, it is not given here. The star is where a group is joined. Biotin = O=C1N[C@H]2[C@H](CS[C@H]2CCCCC(=O)*)N1; Ahx = NCCCCCC(=O)O

How the values were obtained:
CD99ExhIgG = molecular target: T1, CD99ExhIgG (Homo sapiens, UniProt P14209); assay: ELISA; indirect ELISA; CD99ExhIgG (or CD147Rg as negative control) coated on the plate at 4 °C overnight; purified HuScFvMT99/3 (HIS6X) at 1, 5 and 10 ug/mL, room temperature 1 h; detected with HRP anti-His tag antibody; details: both partners purified
T1 construct: extracellular part of human CD99; also called CD99ExIgG; recombinant CD99ExhIgG; source: HEK293T stably expressing, culture supernatant, purified (HiTrap Protein G)
T1 sequence (P14209 23-122): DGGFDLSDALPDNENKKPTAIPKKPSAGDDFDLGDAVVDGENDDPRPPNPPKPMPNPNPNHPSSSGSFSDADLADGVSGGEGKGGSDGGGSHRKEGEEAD

[1] = molecular target: T2, CD99 peptide number 6 (Biotin-Ahx-AVVDGENDDPRPPNP) (human); assay: BLI
T2 peptide: {Biotin-Ahx}-AVVDGENDDPRPPNP

[2] = molecular target: T3, CD99 peptide number 6 (Biotin-Ahx-AVVDGENDDPRPPNP) (Homo sapiens); assay: BLI; Biotin-Ahx-AVVDGENDDPRPPNP (10 ug/mL) loaded on streptavidin biosensors; antibody 0.625 to 10 ug/mL in PBS with 0.05% Tween 20; Octet K2; details: both partners purified
T3 construct: stretch of human CD99
T3 chain: {Biotin-Ahx}-AVVDGENDDPRPPNP

binding result (CD99ExhIgG): binds
B1: HuScFvMT99/3 (HIS6X) (scFv, V domains shown)
VH: QVQLQESGPGLVKPSETLSLTCTLSGFNIKDTYIHWVRQPPGKGLEWIGRIDPGNGNIKYDPKFQGRATISADTSKNQVSLNLDSVSAADTAIYYCARSGGYDFDYWGKGSTVTVSS
VL: VQMTQSPSSLSASVGDRVTITCRSSQSLVHSNGNTYLHWYQQKPGKAPKLLIYTVSNRFSGVPSRFSGSGSGTDFTFTISSLQPEDIATYFCSQSTYVPYTFGPGTKVDIK
notes: V-KAPPA domain of HuScFvMT99/3; linker of the ScFvkh format (V-KAPPA-linker-VH); VH domain of HuScFvMT99/3; order V-KAPPA-linker-VH; cloned NdeI/XhoI into pET-21a; also called humanized single-chain Fv MT99/3; humanized ScFv variant of mAb MT99/3; source: E. coli Origami B (DE3), purified (Ni-NTA agarose); not shown: His6, C-terminal, kept

koff [1]: 8.06e-05 s⁻¹
Kd [2]: 0.316 nM
B2: mouse anti-CD99 monoclonal antibody MT99/3 (antibody, V domains shown)
VH: VQLQQSGAELVKPGASVRLSCTLSGFNIKDTYIHWVNQRPEQGLEWIGRIDPGNGNIKYDPKFQGKATITADTSSNKVYLHLSSLTSEDTAVYYCARSGGYDFDYWGQGTTLTVSS
VL: DVVMTQTPLSLPVSLGYQVSISCRSSQSLVHSNGNTYLHWYLQKPGQSPKLLIYTVSNRFSGVPDRFSGSGSGTDFTLKISRVEAEDLGVYFCSQSTYVPYTFGGGTKLEKK
notes: mouse IgG heavy constant region; Parent antibody of m1 and m2; also called mAb MT99/3; mouse MT99/3
